Assay results published in article PMC10175742.

Molecular target: N-cadherin (UniProt P19022)
Test: confocal 3D colocalisation
Conditions: reference: nonfailing control (NFC) heart tissue; sites S637,S647,T649,S650

other: Pearson's correlation coefficient: stronger; reference 0.55 ± 0.04
Substance: αT-catenin (CTNNA3) (from UniProt Q9UI47) DCM heart tissue
